As a reminder, the Kd is the equilibrium constant for the complex coming apart. High values mean lower affinity, low ones higher affinity.

This is an account of results in patent US20100021384A1 (INSTITUT PASTEUR, published 2010).

The target in assay [1] is T1, GFAP (glial fibrillary acidic protein) from normal human brain (human, UniProt P14136 1-432).
T1 construct: Purchased protein purified from human brain; coated on ELISA plates and used in solution for the KD determination; also called hGFAP
T1 sequence (P14136 whole entry): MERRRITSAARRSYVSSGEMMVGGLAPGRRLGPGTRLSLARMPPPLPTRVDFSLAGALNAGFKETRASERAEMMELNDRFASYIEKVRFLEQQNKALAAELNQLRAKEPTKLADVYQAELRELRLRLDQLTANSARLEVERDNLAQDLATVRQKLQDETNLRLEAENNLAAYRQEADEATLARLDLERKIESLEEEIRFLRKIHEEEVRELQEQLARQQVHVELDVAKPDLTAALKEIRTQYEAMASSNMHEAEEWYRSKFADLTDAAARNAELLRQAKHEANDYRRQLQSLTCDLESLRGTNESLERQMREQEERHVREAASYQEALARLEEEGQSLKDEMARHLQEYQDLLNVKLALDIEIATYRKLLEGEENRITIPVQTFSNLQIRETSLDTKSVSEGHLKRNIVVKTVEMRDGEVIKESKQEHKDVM
Briefly: competition ELISA (Friguet method) after heating VHH at 75 C for 15 min and cooling at 4 C for 20 min. On the procedure:
(§1) The binding affinity of VHHs was determined as described by Friguet et al., 1985. Briefly, various concentrations of GFAP were incubated in solution overnight at 4° C. with a known quantity of VHH until equilibrium was reached. The VHH concentration had been determined by preliminary ELISA calibrations. 100 μl of solution was transferred to a well of a microtiter plate previously coated with GFAP and was incubated for 20 min at 4° C. The plates were washed with PBS-Tween 0.1%. VHHs were detected with rabbit anti-His tag antibodies (eBiosciences, San Diego, Calif.) followed by adding β-galactosidase-conjugated goat anti-rabbit Igs (Biosys, Compiègne, France) and 4-methylumbelliferyl β-D galactoside (Sigma Aldrich, Saint-Quentin Fallavier, France). Fluorescence was read at 460 nm, after excitation at 355 nm. KD was estimated from the slope of the regression curve obtained by plotting the reciprocal of the fraction of bound antibody versus the reciprocal of the molar concentration of antigen.
The heat denaturation of VHH-E9 was adapted to the method described in Olichon et al., 2007. VHHs are re-suspended in PBS/NaCl 300 mM and are heated for 15 minutes at 75° C. then cooled down at 4° C. for 20 minutes. The binding affinity of VHHs was determined by ELISA as described in Example 2 above.
(ELISA stands for enzyme-linked immunosorbent assay.)

Assay [2] concerns the target T1, GFAP (glial fibrillary acidic protein) …. In words: competition ELISA in solution (Friguet method), GFAP in solution, GFAP-coated plate. How it is done:
as §1

In assay [3] the target is T2, murine GFAP (in murine brain extracts and mouse brain astrocytes) (murine, UniProt P03995 1-430).
T2 construct: Endogenous intracellular protein; identified on blots by the 46 kDa band size and in tissue by astrocyte labelling; also called 46 Kda band
T2 sequence (P03995 whole entry): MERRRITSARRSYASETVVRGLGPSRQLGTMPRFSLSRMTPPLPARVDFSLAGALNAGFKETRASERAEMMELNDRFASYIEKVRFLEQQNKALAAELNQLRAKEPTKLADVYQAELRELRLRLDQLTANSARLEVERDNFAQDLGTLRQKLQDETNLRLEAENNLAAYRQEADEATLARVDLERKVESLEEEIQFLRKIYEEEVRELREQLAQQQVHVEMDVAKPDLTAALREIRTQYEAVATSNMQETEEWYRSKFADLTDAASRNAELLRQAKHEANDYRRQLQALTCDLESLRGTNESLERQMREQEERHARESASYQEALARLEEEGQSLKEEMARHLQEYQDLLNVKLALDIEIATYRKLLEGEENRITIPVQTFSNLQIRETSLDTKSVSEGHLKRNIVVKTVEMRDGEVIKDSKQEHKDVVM
Briefly: Western blot of murine brain extracts. On the procedure:
Murine brain proteins (300 mg) were extracted in a potter with 600 μl of NuPage LDS sample buffer (Invitrogen) and kept for […] at 70° C. An aliquot was diluted 1:10 (v/v) with the same sample buffer then treated at 70° C. for 10 min. Following separation by polyacrylamide gel electrophoresis (PAGE) using NuPAGE Novex 4-12% Bis-tris gel (Invitrogen), semi-dry transfer onto Hybond-C (Amersham) and western blotting were carried out using the Xcell II blot module (Invitrogen). Prior to the immunochemical reaction, membranes were blocked in a 4% skimmed milk solution. […] Finally, peroxidase activity was visualized using a chemiluminescent kit (Amersham).
The specificity of the different VHHs was tested by ELISA and by Western blot. All the VHHs were specific for GFAP by ELISA (FIG. 5) and could detect at least 40 ng of protein.
A general note: A western blot detects proteins with antibodies after separation by electrophoresis.

For assay [4], the target named is T1, GFAP (glial fibrillary acidic protein) …. Briefly: competition ELISA (Friguet method), GFAP.

B1: VHH-E9 (VHH)
VHH: DVQLQVSGGGSVQPGGSLRLSCAASGFTFSNYAMYWLRQAPGKGIEWVSRIGPGGSHTEYADSVKGRFTISRDNAKNTLSLQMNSLKPEDTAVYYCAITQQGSGRGQGTQVTVSS
notes: Alpaca VHH selected by ribosome display against human GFAP; expressed in E. coli periplasm from pET22 with a His-tag and purified by IMAC; same molecule; also called anti-GFAP VHH-E9; native VHH-E9; not shown: His-tag (His6) from pET22 expression
As for B1, the Kd in assay [1] worked out at 3.8 nM; in assay [2], 5.6 nM. Besides, the binding result in assay [3] is “binds”.

B2: VHH-E3 (VHH)
VHH: DVQLQVSGGGSVQPGGSLRLSCAAPGFTFSNYAMYWLRQAPGKGIEWVSRIGPGGSHTEYADSVKGRFAISRDNAKNTLSLQMNSLKPEDTAAYYCAITQQGSGRGRGTQVTVSS
notes: Alpaca VHH selected by ribosome display against human GFAP; expressed in E. coli periplasm from pET22 with a His-tag and purified by IMAC; also called anti-GFAP VHH-E3; not shown: His-tag from pET22 expression
Consider B2, for which the binding result in assay [3] is listed as “binds”.

B3: VHH-E9 SS-free (VHH, not shown: small tags and cut ends)
VHH: DVQLQVSGGGSVQPGGSLRLSSAASGFTFSNYAMYWLRQAPGKGIEWVSRIGPGGSHTEYADSVKGRFTISRDNAKNTLSLQMNSLKPEDTAVYYSAITQQGSGRGQGTQVTVSSAAALEHHHHHH
notes: VHH-E9 in which the disulfide-forming cysteines Cys 22 and Cys 96 were replaced by serine by site-directed mutagenesis; also called cysteine-free derivative of VHH-E9
Turning to B3, in assay [4], binding was characterised by a dissociation constant (Kd) of 12 nM and the “fold reduction of affinity against native VHH-E9” value was determined as 2 fold.

B4: VHH-A10 (VHH)
VHH: DVQLRASGGGLVQPGGSLRLSCAASGFTFSNYAMYWLRQAPGKGIEWVSRIGPGGSHTEYADSVKGRFTISRDNAKNTLSLQMNSLKPEDTAVYYCAITQQGSGRGQETQVTVSSAAALEHHHHHH
notes: Alpaca VHH selected by ribosome display against human GFAP; expressed in E. coli periplasm from pET22 with a His-tag and purified by IMAC; also called anti-GFAP VHH-A10; not shown: His-tag from pET22 expression
With B4, in assay [2], the Kd is 3.1 nM. In addition, the binding result in assay [3] is on record as “binds”.
